Measurements: IntAct's records for PubMed 10357812

B1: Synaptojanin-2 (Rattus norvegicus (Rat)), O55207-3 (parent)
chain: MALSKGLRLLARLDPTGPSSVLLEARGRGDCLLFEAGAVATLAPEEKEVIKGLYGKPTDAYGCLGELSLKSGGVPLSFLVLVTGCTSVGRIPDAEIYKITGTEFYPLQEEAKEEDRLPALKKILSSGVFYFAWPNDGACFDLTIRAQKQGDDCSEWGTSFFWNQLLHVPLRQHQVNCHDWLLKVICGVVTIRTVYASHKQAKACLISRISCERAGARFLTRGVNDDGHVSNFVETEQAIYMDDGVSSFVQIRGSVPLFWEQPGLQVGSHHLRLHRGLEANAPAFERHMVLLKEQYGQQVVVNLLGSRGGEEVLNRAFKKLLWASCHAGDTPMINFDFHQFAKGRKLEKLENLLRPQLKLHWDDFGVFAKGENVSPRFQKGTLRMNCLDCLDRTNTVQCFIALEVLHLQLESLGLNSKPITDRFVESFKAMWSLNGHGLSKVFTGSRALEGKAKVGKLKDGARSMSRTIQSNFFDGVKQEAIKLLLVGDVYNEESTDKGRMLLDNTALLGLGSNKQNSLSGMLDGKATPRILKAMTERQSEFTNFKRIQIAMGTWNVNGGKQFRSNLLGTTELTDWLLDAPQLSGAVDSQDDGGPADIFAVGFEEMVELSAGNIVNASTTNRKMWGEQLQKAISRSHRYILLTSAQLVGVCLYIFVRPYHVPFIRDVAIDTVKTGMGGKAGNKGAVGIRFQFHSTSFCFICSHLTAGQSQVKERNEDYREITHKLSFPSGRNIFSHDYVFWCGDFNYRIDLTYEEVFYFVKRQDWKKLMEFDQLQLQKSSGKIFKDFHEGTINFGPTYKYDVGSAAYDTSDKCRTPAWTDRVLWWRKKHPYDKTAGELNLLDSDLDGDANIRHTWSPGTLKYYGRAELQASDHRPVLAIVEVEVQEVDVGARERVFQEVSSVQGPLDATVIVNLQSPTLEERNEFPEDLRTELMQTLGNYGTIILVRINQGQMLVTFADSHSALSVLDVDGMKVKGRAVKIRPKTKDWLEGLREELIRKRDSMAPVSPTANSCLLEENFDFTSLDYESEGDVLEDDEDYLADEFGQPVVSDSELGGDDSSDTMSASTPASKSPALAKKKQHPTYKDDADLMTLKLELEVAGNFRHRSPSRSLSVPNRPRPPHPPQRPPPPTGLMVKKSASDASISSGTHGQYSILQTAKLLPGAPQQPPKARTGISKPYNVKQIKTTNAQEAEAAIRCLLEAGGGVPESAPGATPLRNQGSSKPEASLGPPVLPRRPVPRVPTMKKPTLRRTGKIVFCSSSQASQPCSLLQRHEFVRTVAAQRLTPVDASGSSV
partner: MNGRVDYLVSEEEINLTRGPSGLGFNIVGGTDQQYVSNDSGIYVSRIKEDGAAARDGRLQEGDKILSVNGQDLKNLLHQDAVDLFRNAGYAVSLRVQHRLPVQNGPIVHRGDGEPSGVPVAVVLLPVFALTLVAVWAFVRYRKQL

Variants of: B1
Settings: with syj2b_rat Synj2bp

Effect of a mutation on the interaction, disrupting interaction:
G1290A
S1291A
V1293A
